Values quoted from earlier work, collected in PMC4329993.

Biological target: GLP-1 receptor (Homo sapiens) (UniProt P43220)
Sequence of UniProt P43220 (P43220 24-463): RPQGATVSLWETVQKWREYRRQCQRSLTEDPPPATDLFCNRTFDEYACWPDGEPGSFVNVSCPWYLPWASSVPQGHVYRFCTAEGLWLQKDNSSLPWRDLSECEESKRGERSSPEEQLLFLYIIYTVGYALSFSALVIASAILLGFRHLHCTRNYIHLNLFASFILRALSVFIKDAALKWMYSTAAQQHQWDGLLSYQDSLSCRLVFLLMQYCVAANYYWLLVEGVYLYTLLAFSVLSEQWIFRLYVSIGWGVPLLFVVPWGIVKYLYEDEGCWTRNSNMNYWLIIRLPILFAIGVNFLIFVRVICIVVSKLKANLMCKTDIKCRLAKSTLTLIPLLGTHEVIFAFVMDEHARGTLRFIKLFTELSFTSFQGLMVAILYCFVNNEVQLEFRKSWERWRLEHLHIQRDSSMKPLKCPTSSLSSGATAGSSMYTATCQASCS

Sequence of GLP-1 (P01275 98-127): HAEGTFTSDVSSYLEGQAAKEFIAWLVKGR

For GLP-1 (from UniProt P01275), the Kd is given as 0.3 nM.
